Some targets named below: HLA-B*07:02; HLA-B*44:03; HLA-B*40:01; HLA-B*40:02; HLA-B*45:01; HLA-B*18:01; HLA-B*44:02; HLA-B*35:01; HLA-B*51:01.
What all share (assay): IEDB peptide-MHC binding, purified MHC/competitive/radioactivity; filed as Kd, often an IC50 or EC50 that approximates it; ≥ and ≤ were set here for values at or beyond the usual limits of such assays
[1] abbreviates: source organism: Dengue virus 1 Brazil/97-11/1997.
[2] abbreviates: source organism: SARS coronavirus Tor2.
Where [3] appears, read: source organism: Dengue virus 2 Jamaica/1409/1983.
Setting [4] is: source organism: Mammarenavirus juninense.
[5] abbreviates: source organism: Mammarenavirus machupoense.
The mark [6] stands for this setting: source organism: Dengue virus 3 Martinique/1243/1999.
The mark [7] stands for this setting: source organism: Mammarenavirus brazilense.
The mark [8] stands for this setting: source organism: Mammarenavirus lassaense.
Setting [9] is: source organism: Lymphocytic choriomeningitis virus (strain Armstrong).

In the Immune Epitope Database (IEDB) one finds Kd data, which are given here for 19 sequences.

For orientation: pKd means the negative decadic logarithm of the Kd, by convention in mol/L.

pKd: −log10 of the molar value. Where only a bound is given, the exact number is not on record here.

Consider TPQAPTSEIQ, for which the pKd with HLA-B*07:02 (setting [1]) is 6.09.

Regarding FEIDKGIYQT, the pKd in the assay with HLA-B*44:03 (setting [2]) was 4.93; with HLA-B*40:01 (setting [2]) it was 6.13; with HLA-B*40:02 (setting [2]), 7.33; with HLA-B*45:01 (setting [2]), 5.51; in the assay with HLA-B*18:01 (setting [2]), 5.19; in the assay with HLA-B*44:02 (setting [2]), no more than 4.25.

For the sequence TPRMCTREE, in the assay with HLA-B*07:02 (setting [3]), the pKd was 5.71.

As to FEHIVYGDF, the pKd with HLA-B*44:03 (setting [2]) was 4.88; in the assay with HLA-B*40:01 (setting [2]) it was 5.15; with HLA-B*40:02 (setting [2]) it was 6.11; in the assay with HLA-B*45:01 (setting [2]), no more than 4.65; with HLA-B*18:01 (setting [2]), 5.90; in the assay with HLA-B*44:02 (setting [2]), 5.73.

Take AETGSQGVY: the pKd with HLA-B*44:03 (setting [4]) is 6.64; with HLA-B*40:01 (setting [4]) it was 4.80; in the assay with HLA-B*40:02 (setting [4]), 6.20; in the assay with HLA-B*45:01 (setting [4]), 6.68; with HLA-B*18:01 (setting [4]), 5.18; in the assay with HLA-B*44:02 (setting [4]), 6.57.

TEVVGNVIL: the negative logarithm of the Kd (pKd) with HLA-B*44:03 (setting [2]) was 5.17; in the assay with HLA-B*40:01 (setting [2]), 7.83; with HLA-B*40:02 (setting [2]), 6.75; with HLA-B*45:01 (setting [2]) it was 4.82; in the assay with HLA-B*18:01 (setting [2]) it was 5.23; with HLA-B*44:02 (setting [2]), 4.82.

For the sequence GENAVIPKG, the pKd with HLA-B*44:03 (setting [2]) is 5.65; with HLA-B*40:01 (setting [2]), no more than 4.12; with HLA-B*40:02 (setting [2]) it was 6.04; in the assay with HLA-B*45:01 (setting [2]), 6.08; in the assay with HLA-B*18:01 (setting [2]) it was no more than 4.11; in the assay with HLA-B*44:02 (setting [2]) it was 5.69.

In the case of SEVAVLYQDV, the pKd with HLA-B*44:03 (setting [2]) is 6.98; with HLA-B*40:01 (setting [2]), 6.02; with HLA-B*40:02 (setting [2]), 6.87; with HLA-B*45:01 (setting [2]) it was 6.70; in the assay with HLA-B*18:01 (setting [2]), 5.51; with HLA-B*44:02 (setting [2]), 5.95.

Take VPNYNMIIM: the negative-log Kd (pKd) with HLA-B*07:02 (setting [1]) was 7.27; in the assay with HLA-B*35:01 (setting [1]), 7.87; with HLA-B*51:01 (setting [1]) it was 6.06.

For AEIVDTVSA, the pKd is 5.79 with HLA-B*44:03 (setting [2]); 6.40 with HLA-B*40:01 (setting [2]); 7.13 with HLA-B*40:02 (setting [2]); 8.07 with HLA-B*45:01 (setting [2]); 5.09 with HLA-B*18:01 (setting [2]); 5.71 in the assay with HLA-B*44:02 (setting [2]).

Consider QEKAPDVGEL, for which the pKd in the assay with HLA-B*44:03 (setting [5]) was no more than 4.68; in the assay with HLA-B*40:01 (setting [5]), 4.89; in the assay with HLA-B*40:02 (setting [5]) it was 5.97; with HLA-B*45:01 (setting [5]), 5.15; with HLA-B*18:01 (setting [5]), no more than 4.35; with HLA-B*44:02 (setting [5]) it was 5.63.

With QEAYYRARAG, the pKd is 6.39 in the assay with HLA-B*44:03 (setting [2]); 4.90 with HLA-B*40:01 (setting [2]); 6.02 with HLA-B*40:02 (setting [2]); 6.22 with HLA-B*45:01 (setting [2]); no more than 4.44 with HLA-B*18:01 (setting [2]); 6.02 with HLA-B*44:02 (setting [2]).

Take RPISEKEENM: the pKd is 6.87 with HLA-B*07:02 (setting [6]) and 6.30 with HLA-B*35:01 (setting [6]).

Take CEMNHVNSM: the pKd is 6.02 in the assay with HLA-B*44:03 (setting [7]); 5.53 in the assay with HLA-B*40:01 (setting [7]); 7.17 with HLA-B*40:02 (setting [7]); 6.67 with HLA-B*45:01 (setting [7]); 6.33 with HLA-B*18:01 (setting [7]); 6.75 in the assay with HLA-B*44:02 (setting [7]).

Regarding WEVGKPRPPL, the pKd with HLA-B*44:03 (setting [2]) is 5.14; with HLA-B*40:01 (setting [2]) it was 7.80; in the assay with HLA-B*40:02 (setting [2]), 7.73; with HLA-B*45:01 (setting [2]), no more than 4.22; in the assay with HLA-B*18:01 (setting [2]), no more than 4.62; with HLA-B*44:02 (setting [2]) it was 5.23.

Consider FDAAVMGGF, for which the negative logarithm of the Kd (pKd) with HLA-B*44:03 (setting [8]) was 4.74; with HLA-B*40:01 (setting [8]), no more than 4.49; in the assay with HLA-B*40:02 (setting [8]), 5.28; with HLA-B*45:01 (setting [8]), no more than 4.11; with HLA-B*18:01 (setting [8]), no more than 4.40; with HLA-B*44:02 (setting [8]) it was no more than 4.56.

As to KEPQKPLVL, the pKd was no more than 4.62 with HLA-B*44:03 (setting [5]); 4.80 with HLA-B*40:01 (setting [5]); 6.40 in the assay with HLA-B*40:02 (setting [5]); no more than 4.15 with HLA-B*45:01 (setting [5]); no more than 4.11 with HLA-B*18:01 (setting [5]); 4.74 with HLA-B*44:02 (setting [5]).

Take TALTGATEI: the negative logarithm of the Kd (pKd) with HLA-B*51:01 (setting [3]) was 6.21.

With AEILPDTTY, the pKd with HLA-B*44:03 (setting [9]) was 7.00; in the assay with HLA-B*40:01 (setting [9]), 5.22; with HLA-B*40:02 (setting [9]), 4.85; in the assay with HLA-B*45:01 (setting [9]) it was 5.91; with HLA-B*18:01 (setting [9]), 5.85; with HLA-B*44:02 (setting [9]) it was 7.01.
